Starred links: 1 amine or outer side, 2 acyl side, 3 side chain; linkers in the order of their positions; H or OH if unused. Positions of bridges follow the written chain, without caps; N, C: chain ends. Residues, ends and D or L forms follow the SMILES beside them. Groups on a side chain read outwards from the residue. *: point of attachment. X1 = C/C(=N/O)C(C)(C)NCCC(CCNC(C)(C)/C(C)=N\O)CCN*; Glutaryl = O=C(CCCC(=O)[*:2])[*:1]; X2 = NC(=O)COCC(=O)NCCOCCOCCOCCN*
Tests used:
endometriosis lesions = system: endometriosis lesions; parameters: species or system rat, mouse; details: in vivo
Source text: (§1) A rat surgical model of endometriosis was used, together with immunocompromised mouse and isogenic mouse models—all 3 animal models of endometriosis are as described by Story, L. ILAR J., 45(2) 132-138 (2004).
(§2) The uptake of ^99mTc-maraciclatide was compared with that of ^99mTc-[…]. NC100667 is described by Edwards et al [D. Edwards, Nucl.Med.Biol., 35, 365-375 (2008)]. NC100667 is a negative control peptide, in which the arginine residue of the RGD binding motif of maraciclatide (NC100692) was replaced with an alanine residue. Thus, only one amino acid residue was changed—all other aspects of the agent were otherwise the same.

endometrial lesion = details: mouse, in vivo
Source text: as §1, §2

endometrial lesions = details: rat, in vivo
Source text: as §1, §2

## C/C(=N/O)C(C)(C)NCCC(CCNC(=O)CCCC(=O)NCCCC[C@@H]1NC(=O)CSC[C@@H](C(=O)NCCOCCOCCOCCNC(=O)COCC(N)=O)NC(=O)[C@H](Cc2ccccc2)NC(=O)[C@@H]2CSSC[C@H](NC1=O)C(=O)N[C@@H](CCCNC(=N)N)C(=O)NCC(=O)N[C@@H](CC(=O)O)C(=O)N2)CCNC(C)(C)/C(C)=N\O (stereo partly drawn) [^99mTc-maraciclatide, metal not drawn] ({CH2CO}-K([Glutaryl-X1])CRGDCFC-X2; disulfide 2-6; thioether N-8)
Endometriosis lesions
  uptake and retention in animal models of endometriosis: demonstrated in all experimental animal models of endometriosis
Endometrial lesion
  ratio of endometriotic lesion to blood: 4.0
  ratio of endometriotic lesion to muscle: 8.3
  retention in ovaries and uterine horns: ~35%
  uptake in endometrial lesion, time course at 1, 2 or 3 weeks post implantation: greatest at one week post uterine horn inoculation
Endometrial lesions
  uptake in endometrial lesions versus control lesions of abdominal fat: higher compared to control lesions of abdominal fat
